B1: IL22: human recombinant IL22 (10 ng/mL) on human colonoids; mouse recombinant IL22 on mouse colonoids (protein, UniProt Q9GZX6 34-179, looked up)
Interleukin-22: APISSHCRLDKSNFQQPYITNRTFMLAKEASLADNNTDVRLIGEKLFHGVSMSERCYLMKQVLNFTLEEVLFPQSDRFQPYMQEVVPFLARLSNRLSTCHIEGDDLHIQRNVQKLKDTVKKLGESGEIKAIGELDLLFMSLRNACI

Tests used:
TRUC mice = experiment: TRUC mouse chronic colitis model, in vivo treatments; conditions: TRUC Il22−/− mice
Experimental: In vivo treatments: Neutralizing anti-IL-22 mAb (clone IL22-01) and recombinant IL-22 (rIL-22) were developed and provided by Pfizer. […] of IL22-01 (per mouse) were administered i.p. every 3 to 4 days. […] of rIL-22 (per mouse) were administered i.p. at days 0, 4, 8 and 12, while mice were culled at day 14. Anti-CXCR2 (clone 242216, R&D Systems) was administered i.p. at a dose of […] per mouse at days 0, 3, 7, 10 and 14, while mice were culled at day 15.
Isolation of colonic LP leukocytes (cLPMCs): Mice were euthanized by either cervical dislocation or by a rising concentration of carbon dioxide gas, and then dissected in a laminar flow cabinet under aseptic conditions. Colons were opened longitudinally, cleaned thoroughly with ice-cold PBS and cut into 1-2 mm pieces and washed with 10 ml 5 mM EDTA, 1 mM Hepes in HBSS (Gibco; Gaithersburg, Md.) in a shaking water bath (300 rpm) at 37° C. for 20 min. Tissue was then vortexed vigorously for 10 seconds and passed through a […] cell strainer and collected in Ctubes (Miltenyi; Bergisch Gladbach, Germany) in complete RPMI (Gibco) containing 10% fetal calf serum, 0.25 mg/ml Collagenase D (Roche; Basel, Switzerland), 1.5 mg/ml Dispase II (Roche) and […] DNase (Roche) and put in a shaking water bath (300 rpm) at 37° C. for 40 minutes. Before and after the 40 minute incubation C-tubes were vigorously shaken for 30 seconds. Solutions were then passed through […] cell strainers and washed with ice-cold PBS. […] Cells were resuspended in 1 ml PBS, counted, and immediately used for further experiments.
Gene expression analysis: Whole tissue colonic fragments or sorted cells were lysed in 1 ml TRIsure (Bioline) and stored at −80° C. pending further processing. […] Concentration of RNA in each sample was measured using NanoDrop. […] Quantitative PCR was performed using QuantiTect primers (Qiagen) and Quantitect SybrGreen MasterMix (Qiagen) on a LightCycler 480 (Roche). Samples were analyzed in triplicates and relative expression of mRNAs was determined after normalization against the housekeeping gene Beta-2-Microglobulin (B2M). […]

mouse colonic organoids = experiment: IL22 treatment of mouse colonic organoids, chemokine expression; type: cell-based
Experimental: Mouse colonoids were cultured in the same medium as above but without gastrin SB202190, Nicotinamide, A83-01 and with the addition of 3 μM CHIR99021 (Cambridge Biosciences; Cambridge, United Kingdom). To differentiate them, Wnt3a was withdrawn for 3 days. During the last 24 hours in differentiation medium, mouse colonoids were treated with mouse recombinant IL22 (10 ng/mL) and IL17A (50 ng/mL).
Next, whether IL22 mediated regulation of neutrophil-active chemokine expression was functionally important in colitis was investigated. First, it was evaluated whether IL22 mediated regulation of human colonic epithelial function was conserved across species. […] In the CC family of chemokines, induction of Ccl7 and weaker induction of Ccl2 by IL22, with little or no impact on other CC family members, was observed. These findings were validated using real time PCR, which confirmed time and dose dependent induction of CXC-family chemokine transcripts. As observed in human colonoids, IL22 induced expression of Cxcl1 and Cxcl5, and was synergistically augmented by IL17A. These observations were confirmed at the protein level by measuring chemokine production in supernatants of murine colonic organoids cultured with recombinant mouse cytokines.

human colonoids = experiment: Cytokine treatment of human colonoids, RNA-seq; type: cell-based
Experimental: All patients provided informed consent (NRES/IRAS id:15/LO/1998). Subsequent establishment of human colonoids was performed as previously described by Sato et al (48). The crypts were cultured in growth medium containing advanced Dulbecco's modified Eagle's medium/F12, penicillin/streptomycin (100 units/mL), 10 mM HEPES, 2 mM Glutamax, supplements N2 (1×) and B27 (1×), 50 ng/mL mouse epidermal growth factor (all from Life Technologies; Carlsbad, Calif.), 1 mM N-acetylcysteine (Sigma-Aldrich; St. Louis, Mo.), 50% v/v Wnt3a conditioned medium, 10% v/v R-spondin-1 conditioned medium, 100 ng/mL murine recombinant noggin protein (Peprotech; Rocky Hill, N.J.), 10 nM gastrin (Sigma-Aldrich), 500 nM A83-01 (Bio-techne; Minneapolis, Minn.), 10 μM SB202190 (Sigma-Aldrich) and 10 mM Nicotinamide (Sigma-Aldrich). 10 μM Y-27632 (Sigma-Aldrich) was added to the culture medium for the initial 3 days. Medium was changed every 2 days. […] During the last 24 hours in differentiation medium, human colonoids were treated with human recombinant IL22 (10 ng/mL), IL17A (50 ng/mL), TNFα (10 ng/mL), IFNγ (20 ng/mL), IL13 (10 ng/mL) and IL22 (10 ng/mL)/IL17A (50 ng/mL) combination.
RNA extraction: Colonoids and LPMC were treated in a similar fashion. Cells were lysed and RNA was extracted using the RNAeasy kit (Qiagen; Hilden, Germany). This step was optimized balancing the effectiveness of elimination of DNA quantified (Qubit dsDNA HS assay kit) versus the loss of quantity of RNA (Qubit RNA BR assay kit). Optimal DNAse I concentration was determined to be ×5 the standard concentration. 500 ng of cDNA was then created using Revertaid cDNA synthesis kit (ThermoFisher) and diluted to a concentration of 6.25 ng/μl. Harvested colonoids were put in Qiazol and then RNA was extracted with the RNAeasy kit (Qiagen) as per manufacturer's guidelines. cDNA was created using the Revertaid cDNA synthesis kit (ThermoFisher).
Library preparation and sequencing: A total amount of 3 μg RNA per sample was used as input material for the RNA sample preparations. Sequencing libraries were generated using NEBNextR Ultra™ RNA Library Prep Kit for IlluminaR (NEB, Ipswich, Mass.) following manufacturer's recommendations and index codes were added to attribute sequences to each sample. Briefly, mRNA was purified from total RNA using poly-T oligo-attached magnetic beads. Fragmentation was carried out using divalent cations under elevated temperature in NEBNext First Strand Synthesis Reaction Buffer (5×). First strand cDNA was synthesized using random hexamer primer and M-MuLV Reverse Transcriptase (RNase H-). Second strand cDNA synthesis was subsequently performed using DNA Polymerase I and RNase H. Remaining overhangs were converted into blunt ends via exonuclease/polymerase activities. After adenylation of 3′ ends of DNA fragments, NEBNext Adaptor with hairpin loop structure were ligated to prepare for hybridization. In order to select cDNA fragments of preferentially 150˜200 bp in length, the library fragments were purified with AMPure XP system (Beckman Coulter, Brea, Calif.). Then 3 μl USER Enzyme (NEB) was used with size-selected, adaptor-ligated cDNA at 37° C. for 15 minutes followed by 5 minutes at 95° C. before PCR. Then PCR was performed with Phusion High-Fidelity DNA polymerase, Universal PCR primers and Index (X) Primer. At last, PCR products were purified (AMPure XP system) and library quality was assessed on the Agilent Bioanalyzer 2100 system. The clustering of the index-coded samples was performed on a cBot Cluster Generation System using HiSeq PE Cluster Kit cBot-HS (Illumina; San Diego, Calif.) according to the manufacturer's instructions. After cluster generation, the paired-end libraries were sequenced on an Illumina HiSeq platform. […]

Molecule | Cxcl1 and Cxcl5 expression in the colon (TRUC mice) | disease activity (colitis) (TRUC mice) | neutrophil recruitment in the colon (TRUC mice) | regulation of chemokine expression (mouse colonic organoids) | downregulated transcripts (human colonoids; FDR<0.01) | upregulated transcripts (human colonoids; FDR<0.01) | differentially expressed transcripts (human colonoids; IL22 10 ng/mL, 24 hours, FDR<0.01) [transcripts] | regulation of chemokine expression (human colonoids; human colonoids, 24 hours) | transcripts uniquely regulated by IL22 (human colonoids; of the 1251 IL22-regulated transcripts)
rIL22: recombinant IL-22 developed and provided by Pfizer, given i.p. to mice | reinstated | restored colitis | restored excessive neutrophil recruitment | – | – | – | – | – | –
B1 | – | – | – | selectively induced expression of the neutrophil-active chemokines Cxcl1, Cxcl3 and Cxcl5 | 672 | 579 | 1251 | preferentially upregulated the neutrophil-active CXC family chemokines CXCL1, CXCL2, CXCL3, CXCL4, CXCL5, CXCL6 and CXCL8 | 322
